Source: publication PMC4092090, “Investigation of a MMP-2 Activity-Dependent Anchoring Probe for Nuclear Imaging of Cancer” (PLoS ONE, 2014)

What was measured:
[1] = type: physicochemical; settings: pH 7.4
Experimental: The experimental determination of probe partition coefficients (log P values) was performed in 1-octanol and 0.02 M phosphate buffer pH 7.4 where the two phases were pre-saturated with each other. 1-Octanol (200 µl) and phosphate buffer (200 µl) were pipetted into LoBind Eppendorf tubes containing 0.37 MBq of probes. The tube was vortexed for 10 seconds, and centrifuged (5 min, 4000×g). Aliquots (50 µl) from the 1-octanol and buffer phases were transferred into two test tubes for radioactivity counting with a NaI well-type scintillation counter (1470 WIZARD, Perkin Elmer, Kanagawa, Japan). The partition coefficient was calculated using the equation P = (counts/µl in 1-octanol)/(counts/µl in buffer).

[2] = test system: HT1080 tumor bearing mice; design: species or system mouse (Balb/c nu-nu); settings: mouse, in vivo, iv
Experimental: (§1) […]3000 and […] (37 kBq, 100 μl in PBS including 3% bovine serum albumin and 0.1% Tween 80) were injected intravenously into the tail vein of tumor bearing mice. The mice were sacrificed at various post-injection time points (n = 3 for each time point), and the organs of interest including the tumor tissues were collected for determination of the weights. The radioactivity of each sample was measured with a NaI well-type scintillation counter. From fitting to the two phase decay curves for blood radioactivity data analyzed by GraphPad Prism 6 (GraphPad Software, San Diego, CA), whole body pharmacokinetic parameters such as blood half-lives, distribution volume, mean residence time and total clearance were calculated for each of the probes and the values compared. Simple pharmacokinetic analysis using a single tissue compartment model was applied to the biodistribution data to calculate rate constants (K1 and k2) for radioactivity transfer from blood to tumor and clearance from tumor to blood by PMOD version 3.2. In addition, MDAP3000 (7.4 MBq in 200 μl) was injected intravenously into the tail vein of tumor bearing mice for metabolite analysis in tumors excised 3, 6, and 24 hr post injection (n = 2 each). Tumor homogenates were prepared on ice and insoluble material was removed by centrifugation after methanol treatment. The resulting supernatant was analyzed by RP-HPLC.

[3] = test system: HT1080 tumor xenograft; design: species or system mouse (Balb/c nu-nu); settings: mouse, in vivo
Experimental: as §1

[4] = test system: HT1080 human fibrosarcoma cells; assay: Cellular uptake study; type: cell-based; settings: for Cellular accumulation (radioactivity in tumor cells): 5×10^5 HT1080 cells, FBS-free DMEM, 37 kBq probe, 30 min incubation, radioactivity counting, Fig. 3a
Experimental: HT1080 human fibrosarcoma cells were purchased from American Type Culture Collection (ATCC, Manassas, VA USA) and cultured in DMEM with low glucose (Invitrogen), 10% fetal bovine serum (FBS), and penicillin/streptomycin. MMP-2 cDNA was cloned into the pENTR vector (Invitrogen) and inserted into the pLenti6 vector (Invitrogen) as previously described, [7]. […] Protein quantitation was performed by BCA protein assay (Thermo Fisher Scientific, Inc. Rockford, IL USA). The cellular uptake study of MDAP3000 pretreated with activated MMP-2 (63 nM) in the presence or absence of GM6001 (100 µM) was performed as described above.

Row | Substance | log P (partition coefficient) [1] | Blood half-life, Fast [2] | Blood half-life, Slow [2] | Clearance (total clearance) [2] | Distribution volume [2] | Mean residence time [2] | K1, rate constant for transfer from blood to tumor, Mean ([3]; iv) | k2, rate constant for clearance from tumor to blood, Mean ([3]; iv) | Cellular accumulation (radioactivity in tumor cells) [4] | Slower washout rate from the tumor (k2) compared to MDAPCV [3] | Increased cellular uptake of MMP-2 pretreated probe with additional MMP inhibitor ([4]; HT1080 cells, activated MMP-2 (63 nM) plus GM6001 (100 µM), Fig. 3c) | Cellular accumulation of probe pretreated with MMP-2 ([4]; HT1080 cells, probe pretreated with activated MMP-2 (63 nM), 30 min, Fig. 3c)
1 | Palmitoyl-Dap(p-SCN-Bn-DTPA-^111In)-10-Adc-Gly-Pro-Leu-Gly-Val-Arg-Gly-Lys(ivDde)-PEG1000 [MDAP1000] | −0.56±0.13 | 4.0×10 min | 43.3 h | 0.0083 mL/min | 1.71 mL | 210 min | 0.00071 mL/g/min | 0.0011 min⁻¹ | high radioactivity accumulation | – | – | –
2 | Palmitoyl-Dap(p-SCN-Bn-DTPA-^111In)-10-Adc-Gly-Pro-Leu-Gly-Val-Arg-Gly-Lys(ivDde)-PEG3000 [MDAP3000] | −0.95±0.12 | 5.6×10 min | 7.17 h | 0.0079 mL/min | 1.94 mL | 250 min | 0.0013 mL/g/min | – | significantly lower radioactivity | approximately seven-fold | completely blocked | accumulated in cells to higher levels
